Legend:
[1] = biological target: T1, TRPM2 interaction with GluN2a (Rattus norvegicus, UniProt Q00959); test: Co-IP of TRPM2 with GluN2a in co-transfected HEK293T cells; assay type: cell-based, human; conditions: 10 μM peptide overnight; IP anti-GluN2a, WB anti-Flag
T1 construct: TRPM2 plasmid a gift 17928; 17924; 17925; host or cells: HEK293T
Method: FIGS. 5A and 5B show the effects of TAT-EE3 on interaction of TRPM2 and NMDARs. Co-IP tests of NMDARs with WT or EE3 domain mutants of TRPM2 (Flag-tagged) in co-transfected HEK293T cells. WT TRPM2 groups were treated with 10 μM TAT-SC or TAT-EE3 overnight. Lysates were IP's with anti-GluN2a (FIG. 5A) or anti-GluN2b (FIG. 5B), and probed by WBs with anti-Flag. IgG was used as control for IP. Similar to the mutants TRPM2-ΔEE3 and TRPM2-EQE, TAT-EE3 disrupted TRPM2 interaction with GluN2a and GluN2b.
were ordered from GenScript Biotech, and dissolved in PBS to make a stock concentration at 10 mM. HEK-293T cells or isolated neurons were treated with TAT-SC or TAT-EE3 at a concentration of 10 μM for at least 8 h prior to use. Mice were injected with TAT-SC or TAT-EE3 intraperitoneally (ip) at a dose of 100 nmol/kg. […]
NP-40 lysis buffer ([…], 150 mM NaCl, 1 mM EDTA, 50 mM Tris, pH=8.0) containing proteinase inhibitors (Sigma-Aldrich, 539131-10VL) and phosphatase inhibitors (Thermal Fisher Scientific, 78428) was used to lyse both cultured cells and frozen brain tissue. […] Protein concentration was measured using Pierce™ Rapid Gold BCA Protein Assay Kit (Thermal Fisher Scientific, A53225). […] Then samples were ready for western blotting analysis.

[2] = biological target: T2, NMDARs (Mus musculus, UniProt P35436+Q01097); test: Surface expression of NMDARs in brains of MCAO mice (WB); assay type: in vivo; conditions: 100 nmol/kg ip 15 mins before MCAO; 24 hrs after MCAO
T2 construct: from tissue; host or cells: mouse brain, membrane protein extract 24 h after MCAO or sham
T2 sequence (P35436 20-1464 limits assumed, other chains not shown): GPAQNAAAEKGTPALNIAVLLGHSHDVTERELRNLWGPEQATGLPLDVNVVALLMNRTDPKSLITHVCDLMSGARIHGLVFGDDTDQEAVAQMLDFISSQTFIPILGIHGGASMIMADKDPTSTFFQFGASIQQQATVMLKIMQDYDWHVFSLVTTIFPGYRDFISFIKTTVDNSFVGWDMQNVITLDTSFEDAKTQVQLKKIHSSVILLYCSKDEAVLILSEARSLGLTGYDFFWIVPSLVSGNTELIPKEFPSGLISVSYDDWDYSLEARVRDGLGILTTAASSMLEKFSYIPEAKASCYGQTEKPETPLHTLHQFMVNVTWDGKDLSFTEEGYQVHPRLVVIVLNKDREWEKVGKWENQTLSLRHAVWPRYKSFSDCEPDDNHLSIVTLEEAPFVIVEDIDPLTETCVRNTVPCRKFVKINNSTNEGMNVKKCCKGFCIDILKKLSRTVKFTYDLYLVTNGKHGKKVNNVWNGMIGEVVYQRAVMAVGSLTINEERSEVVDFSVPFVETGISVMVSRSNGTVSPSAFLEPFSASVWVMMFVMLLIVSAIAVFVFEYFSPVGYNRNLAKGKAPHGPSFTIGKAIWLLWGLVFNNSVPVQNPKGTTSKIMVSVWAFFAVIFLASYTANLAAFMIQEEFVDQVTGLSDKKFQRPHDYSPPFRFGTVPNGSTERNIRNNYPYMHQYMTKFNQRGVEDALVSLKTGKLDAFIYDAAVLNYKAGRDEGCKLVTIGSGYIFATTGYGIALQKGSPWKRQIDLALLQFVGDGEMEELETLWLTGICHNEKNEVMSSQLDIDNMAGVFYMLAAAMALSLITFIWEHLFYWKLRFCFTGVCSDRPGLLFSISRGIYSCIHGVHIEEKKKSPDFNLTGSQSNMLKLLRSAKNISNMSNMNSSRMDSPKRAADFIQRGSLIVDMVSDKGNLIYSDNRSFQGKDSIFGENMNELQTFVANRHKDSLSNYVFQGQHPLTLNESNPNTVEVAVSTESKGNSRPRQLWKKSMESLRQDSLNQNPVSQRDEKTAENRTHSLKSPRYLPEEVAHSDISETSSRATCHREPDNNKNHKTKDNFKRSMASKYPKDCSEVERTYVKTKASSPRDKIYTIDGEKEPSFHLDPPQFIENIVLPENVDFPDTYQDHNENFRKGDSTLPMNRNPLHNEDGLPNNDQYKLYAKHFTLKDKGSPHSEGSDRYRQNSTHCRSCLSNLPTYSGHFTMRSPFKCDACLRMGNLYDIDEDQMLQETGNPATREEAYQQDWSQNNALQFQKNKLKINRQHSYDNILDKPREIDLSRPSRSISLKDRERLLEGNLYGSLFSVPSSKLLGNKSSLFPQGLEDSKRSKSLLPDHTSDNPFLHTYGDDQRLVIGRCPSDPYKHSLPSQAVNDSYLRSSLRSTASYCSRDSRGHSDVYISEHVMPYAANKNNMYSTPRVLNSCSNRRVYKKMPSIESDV
T2 sequence (Q01097 27-1482, other chains not shown): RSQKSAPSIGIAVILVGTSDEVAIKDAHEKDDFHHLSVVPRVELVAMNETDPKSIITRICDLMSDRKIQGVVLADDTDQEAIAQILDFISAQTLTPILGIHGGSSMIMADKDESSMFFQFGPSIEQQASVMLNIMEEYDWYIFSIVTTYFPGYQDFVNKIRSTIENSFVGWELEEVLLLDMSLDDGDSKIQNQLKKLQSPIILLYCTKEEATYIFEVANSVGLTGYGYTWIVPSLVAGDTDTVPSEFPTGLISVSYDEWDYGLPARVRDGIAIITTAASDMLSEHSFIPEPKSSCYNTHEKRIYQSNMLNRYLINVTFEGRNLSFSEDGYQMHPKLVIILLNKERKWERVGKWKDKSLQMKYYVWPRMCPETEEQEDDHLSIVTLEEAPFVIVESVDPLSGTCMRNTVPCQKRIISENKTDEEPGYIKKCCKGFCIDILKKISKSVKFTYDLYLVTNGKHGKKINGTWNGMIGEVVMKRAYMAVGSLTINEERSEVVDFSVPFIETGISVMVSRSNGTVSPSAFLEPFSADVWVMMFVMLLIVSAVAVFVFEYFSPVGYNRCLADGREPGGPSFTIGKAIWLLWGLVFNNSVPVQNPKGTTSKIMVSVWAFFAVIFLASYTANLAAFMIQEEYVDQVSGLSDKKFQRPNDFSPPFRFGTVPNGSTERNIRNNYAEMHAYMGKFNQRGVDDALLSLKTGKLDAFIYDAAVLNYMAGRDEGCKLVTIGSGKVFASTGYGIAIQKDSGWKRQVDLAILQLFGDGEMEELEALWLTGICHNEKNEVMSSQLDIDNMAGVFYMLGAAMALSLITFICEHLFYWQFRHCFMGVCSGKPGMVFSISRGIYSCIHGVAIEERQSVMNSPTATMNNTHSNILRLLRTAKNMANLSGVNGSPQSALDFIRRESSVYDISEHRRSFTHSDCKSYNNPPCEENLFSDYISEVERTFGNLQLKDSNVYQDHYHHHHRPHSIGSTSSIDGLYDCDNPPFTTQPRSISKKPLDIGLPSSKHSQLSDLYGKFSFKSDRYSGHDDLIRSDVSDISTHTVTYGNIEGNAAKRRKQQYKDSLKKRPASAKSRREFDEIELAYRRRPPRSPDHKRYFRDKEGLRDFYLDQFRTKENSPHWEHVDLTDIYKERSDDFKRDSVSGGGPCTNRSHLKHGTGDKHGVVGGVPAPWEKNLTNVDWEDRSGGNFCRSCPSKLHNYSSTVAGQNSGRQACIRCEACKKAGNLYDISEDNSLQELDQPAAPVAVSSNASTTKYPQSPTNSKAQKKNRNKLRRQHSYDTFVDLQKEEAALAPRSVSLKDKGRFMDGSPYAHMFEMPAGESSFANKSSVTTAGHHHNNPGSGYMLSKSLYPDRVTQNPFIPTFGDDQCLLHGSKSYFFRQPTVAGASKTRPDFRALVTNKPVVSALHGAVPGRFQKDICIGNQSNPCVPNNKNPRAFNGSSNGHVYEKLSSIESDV
Method: FIGS. 7D and 7E show the effects of TAT-EE3 on surface expression of NMDARs in WT and nM2KO mice 24 hrs after MCAO or sham procedure. TAT-SC and TAT-EE3 were ip administrated (100 nmol/kg) 15 mins before MCAO or sham procedure. FIG. 7D show the WB of surface expression of NMDARs from two representative samples/group. Pan-cadherin was used as loading control. FIG. 7E show the quantification of surface expression of NMDARs normalized to Pan-cadherin (ns, p>0.05; ***, p<0.001; ANOVA, Bonferroni's test; mean±SEM; n=4 mice/group).
Eight-to nine-week-old male mice (˜25 g) were subjected to right middle cerebral artery occlusion (MCAO) for 120 min followed by 24 hours of reperfusion. The genotype information was blinded to the surgeon who conduct the surgeries. […] Mouse body temperature was monitored by a rectal temperature probe and maintained at ˜ 37° C. with an automatic temperature-regulating heating pad connected to animal temperature controller (TCA T-2DF, Physitemp). Cerebral blood flow was monitored after occlusion as well as after reperfusion. […] Successful occlusion was confirmed by 85% reduction of cerebral blood flow monitored by Laser Doppler Flowmetry (LDF) with laser Doppler blood FlowMeter (Moor-VMS-LDF1, Moor Instrument, Dever, UK). […]

T1 sequence (Q00959 23-1464, other chains not shown): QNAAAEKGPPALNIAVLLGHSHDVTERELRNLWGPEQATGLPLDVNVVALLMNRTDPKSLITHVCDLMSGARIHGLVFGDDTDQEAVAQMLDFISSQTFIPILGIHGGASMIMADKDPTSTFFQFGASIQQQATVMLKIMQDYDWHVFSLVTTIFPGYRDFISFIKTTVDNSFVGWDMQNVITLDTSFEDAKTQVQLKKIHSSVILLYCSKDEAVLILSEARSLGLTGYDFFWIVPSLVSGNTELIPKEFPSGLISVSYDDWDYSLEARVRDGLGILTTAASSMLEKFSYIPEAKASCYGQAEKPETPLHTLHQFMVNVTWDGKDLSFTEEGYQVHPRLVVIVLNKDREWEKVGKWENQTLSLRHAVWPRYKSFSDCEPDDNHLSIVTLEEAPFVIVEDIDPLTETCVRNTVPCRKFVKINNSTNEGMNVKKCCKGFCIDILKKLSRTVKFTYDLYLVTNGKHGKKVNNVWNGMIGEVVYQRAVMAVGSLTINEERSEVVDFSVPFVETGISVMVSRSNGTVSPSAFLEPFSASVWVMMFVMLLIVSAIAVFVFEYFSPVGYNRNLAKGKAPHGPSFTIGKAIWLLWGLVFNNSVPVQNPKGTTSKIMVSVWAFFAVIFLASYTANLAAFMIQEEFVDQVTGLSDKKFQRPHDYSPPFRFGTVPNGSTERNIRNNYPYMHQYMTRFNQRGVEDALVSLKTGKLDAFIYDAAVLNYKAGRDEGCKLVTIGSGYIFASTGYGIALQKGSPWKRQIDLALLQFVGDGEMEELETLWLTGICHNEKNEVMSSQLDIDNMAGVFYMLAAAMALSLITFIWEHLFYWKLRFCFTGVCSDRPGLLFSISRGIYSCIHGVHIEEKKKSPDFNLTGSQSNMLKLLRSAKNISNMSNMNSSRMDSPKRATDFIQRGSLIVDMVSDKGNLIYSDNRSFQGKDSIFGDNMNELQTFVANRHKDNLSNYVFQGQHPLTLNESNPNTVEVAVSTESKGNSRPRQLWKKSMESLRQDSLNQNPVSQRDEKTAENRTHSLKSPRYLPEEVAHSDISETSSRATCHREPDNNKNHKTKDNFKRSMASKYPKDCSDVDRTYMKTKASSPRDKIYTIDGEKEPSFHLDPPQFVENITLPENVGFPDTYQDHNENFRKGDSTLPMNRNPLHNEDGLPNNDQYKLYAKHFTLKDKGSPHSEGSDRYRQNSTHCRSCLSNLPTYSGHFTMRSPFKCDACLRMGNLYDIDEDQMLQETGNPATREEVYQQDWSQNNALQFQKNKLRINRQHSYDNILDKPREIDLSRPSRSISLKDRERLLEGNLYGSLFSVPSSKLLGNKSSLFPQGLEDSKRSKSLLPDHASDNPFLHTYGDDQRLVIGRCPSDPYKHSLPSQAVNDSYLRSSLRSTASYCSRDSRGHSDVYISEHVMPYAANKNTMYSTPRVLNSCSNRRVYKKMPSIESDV

TAT-EE3: membrane permeable disrupting peptide, sequence YGRKKRRQRRREEDTDSSEEMLALAEE (SEQ ID NO: 4)
interaction of TRPM2 with GluN2a (co-IP) [1]: completely disrupted | enhanced surface expression of NMDARs in MCAO mice [2]: abolished
